Assay results from US20230416347A1.

How the values were obtained:
Assay in all cases: EuLISA
[1] = target: KEN hATTR extract (human) (UniProt P02766)
[2] = target: Per125 wtATTR extract (human) (UniProt P02766)
[3] = target: SHI ALλ liver extract
[4] = target: TAL ALκ liver extract
[5] = target: rVλ6Wil fibrils

LogEC50 [1] | Max [1] | LogEC50 [2] | Max [2] | LogEC50 [3] | Max [3] | LogEC50 [4] | Max [4] | EC50 [5] [nM] | LogEC50 [5] | Max [5] | Substance
-1.36 -log(M) | 19700 | – | – | – | – | – | – | – | – | – | chimeric antibody c11-1F4
9.06 -log(M) | -0.8 | 7.92 -log(M) | 8.38 | 7.88 -log(M) | 2.5 | 3 -log(M) | 2220 | 1280 | 5.89 -log(M) | 39.3 | hIgG1 (antibody)
2.39 -log(M) | 294000 | – | – | – | – | – | – | – | – | – | m11-1F4 (antibody)
